The chains are these.
T1: MBP-GFP-ORC1 wild type, full length (human, UniProt Q13415 1-861)
T1 sequence (looked up): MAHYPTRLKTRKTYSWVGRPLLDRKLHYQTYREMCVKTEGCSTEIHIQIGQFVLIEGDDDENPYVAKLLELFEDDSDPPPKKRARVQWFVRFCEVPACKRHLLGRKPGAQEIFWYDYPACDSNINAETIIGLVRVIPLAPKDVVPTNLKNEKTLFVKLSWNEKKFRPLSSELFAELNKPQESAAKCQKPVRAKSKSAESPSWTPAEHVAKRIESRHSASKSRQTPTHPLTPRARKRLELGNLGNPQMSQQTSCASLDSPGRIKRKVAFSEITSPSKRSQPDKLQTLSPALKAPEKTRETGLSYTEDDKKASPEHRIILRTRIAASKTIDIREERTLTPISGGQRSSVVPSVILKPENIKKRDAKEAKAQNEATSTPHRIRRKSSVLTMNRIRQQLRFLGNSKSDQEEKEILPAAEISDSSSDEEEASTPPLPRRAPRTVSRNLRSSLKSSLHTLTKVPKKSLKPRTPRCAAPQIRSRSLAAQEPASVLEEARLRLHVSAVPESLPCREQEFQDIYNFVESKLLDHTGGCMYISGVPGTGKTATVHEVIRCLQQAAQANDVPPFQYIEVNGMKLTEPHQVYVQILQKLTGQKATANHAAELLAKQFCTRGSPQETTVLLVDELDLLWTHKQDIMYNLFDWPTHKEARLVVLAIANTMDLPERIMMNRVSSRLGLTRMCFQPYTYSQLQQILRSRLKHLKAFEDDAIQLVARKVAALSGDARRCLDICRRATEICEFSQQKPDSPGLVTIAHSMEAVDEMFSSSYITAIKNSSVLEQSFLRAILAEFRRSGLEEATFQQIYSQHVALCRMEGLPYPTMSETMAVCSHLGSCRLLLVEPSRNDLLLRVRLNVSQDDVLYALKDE

B1: MBP-ORC1 wild type, full length (natural protein, human, UniProt Q13415 1-861, looked up)
chain: MAHYPTRLKTRKTYSWVGRPLLDRKLHYQTYREMCVKTEGCSTEIHIQIGQFVLIEGDDDENPYVAKLLELFEDDSDPPPKKRARVQWFVRFCEVPACKRHLLGRKPGAQEIFWYDYPACDSNINAETIIGLVRVIPLAPKDVVPTNLKNEKTLFVKLSWNEKKFRPLSSELFAELNKPQESAAKCQKPVRAKSKSAESPSWTPAEHVAKRIESRHSASKSRQTPTHPLTPRARKRLELGNLGNPQMSQQTSCASLDSPGRIKRKVAFSEITSPSKRSQPDKLQTLSPALKAPEKTRETGLSYTEDDKKASPEHRIILRTRIAASKTIDIREERTLTPISGGQRSSVVPSVILKPENIKKRDAKEAKAQNEATSTPHRIRRKSSVLTMNRIRQQLRFLGNSKSDQEEKEILPAAEISDSSSDEEEASTPPLPRRAPRTVSRNLRSSLKSSLHTLTKVPKKSLKPRTPRCAAPQIRSRSLAAQEPASVLEEARLRLHVSAVPESLPCREQEFQDIYNFVESKLLDHTGGCMYISGVPGTGKTATVHEVIRCLQQAAQANDVPPFQYIEVNGMKLTEPHQVYVQILQKLTGQKATANHAAELLAKQFCTRGSPQETTVLLVDELDLLWTHKQDIMYNLFDWPTHKEARLVVLAIANTMDLPERIMMNRVSSRLGLTRMCFQPYTYSQLQQILRSRLKHLKAFEDDAIQLVARKVAALSGDARRCLDICRRATEICEFSQQKPDSPGLVTIAHSMEAVDEMFSSSYITAIKNSSVLEQSFLRAILAEFRRSGLEEATFQQIYSQHVALCRMEGLPYPTMSETMAVCSHLGSCRLLLVEPSRNDLLLRVRLNVSQDDVLYALKDE
B2: GST-CDC6 triple mutant (K92A, R94A and R95A) (natural protein, human, UniProt Q99741 1-560, looked up)
chain: MPQTRSQAQATISFPKRKLSRALNKAKNSSDAKLEPTNVQTVTCSPRVKALPLSPRKRLGDDNLCNTPHLPPCSPPKQGKKENGPPHSHTLAGAALVFDNQLTIKSPSKRELAKVHQNKILSSVRKSQEITTNSEQRCPLKKESACVRLFKQEGTCYQQAKLVLNTAVPDRLPAREREMDVIRNFLREHICGKKAGSLYLSGAPGTGKTACLSRILQDLKKELKGFKTIMLNCMSLRTAQAVFPAIAQEICQEEVSRPAGKDMMRKLEKHMTAEKGPMIVLVLDEMDQLDSKGQDVLYTLFEWPWLSNSHLVLIGIANTLDLTDRILPRLQAREKCKPQLLNFPPYTRNQIVTILQDRLNQVSRDQVLDNAAVQFCARKVSAVSGDVRKALDVCRRAIEIVESDVKSQTILKPLSECKSPSEPLIPKRVGLIHISQVISEVDGNRMTLSQEGAQDSFPLQQKILVCSLMLLIRQLKIKEVTLGKLYEAYSKVCRKQQVAAVDQSECLSLSGLLEARGILGLKRNKETRLTKVFFKIEEKEIEHALKDKALIGNILATGLP
B3: GST-CDC6 Δ71–90 (natural protein, human, UniProt Q99741 1-560, looked up)
chain: MPQTRSQAQATISFPKRKLSRALNKAKNSSDAKLEPTNVQTVTCSPRVKALPLSPRKRLGDDNLCNTPHLLKGRRLVFDNQLTIKSPSKRELAKVHQNKILSSVRKSQEITTNSEQRCPLKKESACVRLFKQEGTCYQQAKLVLNTAVPDRLPAREREMDVIRNFLREHICGKKAGSLYLSGAPGTGKTACLSRILQDLKKELKGFKTIMLNCMSLRTAQAVFPAIAQEICQEEVSRPAGKDMMRKLEKHMTAEKGPMIVLVLDEMDQLDSKGQDVLYTLFEWPWLSNSHLVLIGIANTLDLTDRILPRLQAREKCKPQLLNFPPYTRNQIVTILQDRLNQVSRDQVLDNAAVQFCARKVSAVSGDVRKALDVCRRAIEIVESDVKSQTILKPLSECKSPSEPLIPKRVGLIHISQVISEVDGNRMTLSQEGAQDSFPLQQKILVCSLMLLIRQLKIKEVTLGKLYEAYSKVCRKQQVAAVDQSECLSLSGLLEARGILGLKRNKETRLTKVFFKIEEKEIEHALKDKALIGNILATGLP
B4: GST-CDC6 Δ11–20 (natural protein, human, UniProt Q99741 1-560, looked up)
chain: MPQTRSQAQARALNKAKNSSDAKLEPTNVQTVTCSPRVKALPLSPRKRLGDDNLCNTPHLPPCSPPKQGKKENGPPHSHTLKGRRLVFDNQLTIKSPSKRELAKVHQNKILSSVRKSQEITTNSEQRCPLKKESACVRLFKQEGTCYQQAKLVLNTAVPDRLPAREREMDVIRNFLREHICGKKAGSLYLSGAPGTGKTACLSRILQDLKKELKGFKTIMLNCMSLRTAQAVFPAIAQEICQEEVSRPAGKDMMRKLEKHMTAEKGPMIVLVLDEMDQLDSKGQDVLYTLFEWPWLSNSHLVLIGIANTLDLTDRILPRLQAREKCKPQLLNFPPYTRNQIVTILQDRLNQVSRDQVLDNAAVQFCARKVSAVSGDVRKALDVCRRAIEIVESDVKSQTILKPLSECKSPSEPLIPKRVGLIHISQVISEVDGNRMTLSQEGAQDSFPLQQKILVCSLMLLIRQLKIKEVTLGKLYEAYSKVCRKQQVAAVDQSECLSLSGLLEARGILGLKRNKETRLTKVFFKIEEKEIEHALKDKALIGNILATGLP
B5: GST-CDC6 Δ51–70 (natural protein, human, UniProt Q99741 1-560, looked up)
chain: MPQTRSQAQATISFPKRKLSRALNKAKNSSDAKLEPTNVQTVTCSPRVKAPPCSPPKQGKKENGPPHSHTLKGRRLVFDNQLTIKSPSKRELAKVHQNKILSSVRKSQEITTNSEQRCPLKKESACVRLFKQEGTCYQQAKLVLNTAVPDRLPAREREMDVIRNFLREHICGKKAGSLYLSGAPGTGKTACLSRILQDLKKELKGFKTIMLNCMSLRTAQAVFPAIAQEICQEEVSRPAGKDMMRKLEKHMTAEKGPMIVLVLDEMDQLDSKGQDVLYTLFEWPWLSNSHLVLIGIANTLDLTDRILPRLQAREKCKPQLLNFPPYTRNQIVTILQDRLNQVSRDQVLDNAAVQFCARKVSAVSGDVRKALDVCRRAIEIVESDVKSQTILKPLSECKSPSEPLIPKRVGLIHISQVISEVDGNRMTLSQEGAQDSFPLQQKILVCSLMLLIRQLKIKEVTLGKLYEAYSKVCRKQQVAAVDQSECLSLSGLLEARGILGLKRNKETRLTKVFFKIEEKEIEHALKDKALIGNILATGLP
B6: GST-CDC6 Δ21–30 (natural protein, human, UniProt Q99741 1-560, looked up)
chain: MPQTRSQAQATISFPKRKLSDAKLEPTNVQTVTCSPRVKALPLSPRKRLGDDNLCNTPHLPPCSPPKQGKKENGPPHSHTLKGRRLVFDNQLTIKSPSKRELAKVHQNKILSSVRKSQEITTNSEQRCPLKKESACVRLFKQEGTCYQQAKLVLNTAVPDRLPAREREMDVIRNFLREHICGKKAGSLYLSGAPGTGKTACLSRILQDLKKELKGFKTIMLNCMSLRTAQAVFPAIAQEICQEEVSRPAGKDMMRKLEKHMTAEKGPMIVLVLDEMDQLDSKGQDVLYTLFEWPWLSNSHLVLIGIANTLDLTDRILPRLQAREKCKPQLLNFPPYTRNQIVTILQDRLNQVSRDQVLDNAAVQFCARKVSAVSGDVRKALDVCRRAIEIVESDVKSQTILKPLSECKSPSEPLIPKRVGLIHISQVISEVDGNRMTLSQEGAQDSFPLQQKILVCSLMLLIRQLKIKEVTLGKLYEAYSKVCRKQQVAAVDQSECLSLSGLLEARGILGLKRNKETRLTKVFFKIEEKEIEHALKDKALIGNILATGLP
B7: GST-CDC6 1–110 (domain or fragment, human, UniProt Q99741 1-110, looked up)
chain: MPQTRSQAQATISFPKRKLSRALNKAKNSSDAKLEPTNVQTVTCSPRVKALPLSPRKRLGDDNLCNTPHLPPCSPPKQGKKENGPPHSHTLKGRRLVFDNQLTIKSPSKR

Results on 7 molecules are retold here after publication PMC8106667 (Molecular cell, 2021).

One assay concerns the target T1, MBP-GFP-ORC1 wild type, full length. In words: pull-down.
Regarding B1, the binding result is reported as “binds”.

In the next assay the target is B1. Description: pull-down.
Take B2: the binding result is on record as “binds”.

For the molecule B3, the binding result was “binds”.

Turning to B4, the binding result was “binds”.

On to B5, for which the binding result was “binds”.

With B6, the binding result is “binds”.

On to B7, for which the binding result is given as “binds”.
